In the supplement of paper PMC12458215:
± gives the uncertainty stated by the source.

These sequences were tested on HEK293T (assay: plasma membrane surface immunostaining intensity (anti-HA, deep receptor scanning) (arbitrary fluorescence units); higher = higher plasma membrane expression). Settings: GPCR class: A.
For “MANYTLAPEDEYDVLIEGELESDEAEQCDKYDAQALSAQLVPSLCSAVFVIGVLDNLLVVLILVKYKGLKRVENIYLLNLAVSNLCFLLTLPFWAHAGGDPMCKILIGLYFVGLYSETFFNCLLTVQRYLVFLHKGNFFSARRRVPCGIITSVLAWVTAILATLPEFVVYKPQMEDQKYKCAFSRTPFLPADETFWKHFLTLKMNISVLVLPLFIFTFLYVQMRKTLRFREQRYSLFKLVFAIMVVFLLMWAPYNIAFFLSTFKEHFSLSDCKSSYNLDKSVHITKLIATTHCCINPLLYAFLDGTFSKYLCRCFHLRSNTPLQPRGQSAQGTSREEPDHSTEV [CCRL2]”, the “plasma membrane surface immunostaining intensity” value was 569 ± 46. With “MNATGTPVAPESCQQLAAGGHSRLIVLHYNHSGRLAGRGGPEDGGLGALRGLSVAASCLVVLENLLVLAAITSHMRSRRWVYYCLVNITLSDLLTGAAYLANVLLSGARTFRLAPAQWFLREGLLFTALAASTFSLLFTAGERFATMVRPVAESGATKTSRVYGFIGLCWLLAALLGMLPLLGWNCLCAFDRCSSLLPLYSKRYILFCLVIFAGVLATIMGLYGAIFRLVQASGQKAPRPAARRKARRLLKTVLMILLAFLVCWGPLFGLLLADVFGSNLWAQEYLRGMDWILALAVLNSAVNPIIYSFRSREVCRAVLSFLCCGCLRLGMRGPGDCLARAVEAHSGASTTDSSLRPRDSFRGSRSLSFRMREPLSSISSVRSI [S1PR4]” the “plasma membrane surface immunostaining intensity” value was 6452 ± 53. For “MDVLSPGQGNNTTSPPAPFETGGNTTGISDVTVSYQVITSLLLGTLIFCAVLGNACVVAAIALERSLQNVANYLIGSLAVTDLMVSVLVLPMAALYQVLNKWTLGQVTCDLFIALDVLCCTSSILHLCAIALDRYWAITDPIDYVNKRTPRRAAALISLTWLIGFLISIPPMLGWRTPEDRSDPDACTISKDHGYTIYSTFGAFYIPLLLMLVLYGRIFRAARFRIRKTVKKVEKTGADTRHGASPAPQPKKSVNGESGSRNWRLGVESKAGGALCANGAVRQGDDGAALEVIEVHRVGNSKEHLPLPSEAGPTPCAPASFERKNERNAEAKRKMALARERKTVKTLGIIMGTFILCWLPFFIVALVLPFCESSCHMPTLLGAIINWLGYSNSLLNPVIYAYFNKDFQNAFKKIIKCKFCRQ [HTR1A]”, the “plasma membrane surface immunostaining intensity” value was 5670 ± 440. “METTMGFMDDNATNTSTSFLSVLNPHGAHATSFPFNFSYSDYDMPLDEDEDVTNSRTFFAAKIVIGMALVGIMLVCGIGNFIFIAALVRYKKLRNLTNLLIANLAISDFLVAIVCCPFEMDYYVVRQLSWEHGHVLCTSVNYLRTVSLYVSTNALLAIAIDRYLAIVHPLRPRMKCQTATGLIALVWTVSILIAIPSAYFTTETVLVIVKSQEKIFCGQIWPVDQQLYYKSYFLFIFGIEFVGPVVTMTLCYARISRELWFKAVPGFQTEQIRKRLRCRRKTVLVLMCILTAYVLCWAPFYGFTIVRDFFPTVFVKEKHYLTAFYIVECIAMSNSMINTLCFVTVKNDTVKYFKKIMLLHWKASYNGGKSSADLDLKTIGMPATEEVDCIRLK [PROKR1]” was tested, and the “plasma membrane surface immunostaining intensity” value was 2260 ± 380. For “MINSTSTQPPDESCSQNLLITQQIIPVLYCMVFIAGILLNGVSGWIFFYVPSSKSFIIYLKNIVIADFVMSLTFPFKILGDSGLGPWQLNVFVCRVSAVLFYVNMYVSIVFFGLISFDRYYKIVKPLWTSFIQSVSYSKLLSVIVWMLMLLLAVPNIILTNQSVREVTQIKCIELKSELGRKWHKASNYIFVAIFWIVFLLLIVFYTAITKKIFKSHLKSSRNSTSVKKKSSRNIFSIVFVFFVCFVPYHIARIPYTKSQTEAHYSCQSKEILRYMKEFTLLLSAANVCLDPIIYFFLCQPFREILCKKLHIPLKAQNDLDISRIKRGNTTLESTDTL [P2RY14]”, the “plasma membrane surface immunostaining intensity” value was 5190 ± 71. “MLLETQDALYVALELVIAALSVAGNVLVCAAVGTANTLQTPTNYFLVSLAAADVAVGLFAIPFAITISLGFCTDFYGCLFLACFVLVLTQSSIFSLLAVAVDRYLAICVPLRYKSLVTGTRARGVIAVLWVLAFGIGLTPFLGWNSKDSATNNCTEPWDGTTNESCCLVKCLFENVVPMSYMVYFNFFGCVLPPLLIMLVIYIKIFLVACRQLQRTELMDHSRTTLQREIHAAKSLAMIVGIFALCWLPVHAVNCVTLFQPAQGKNKPKWAMNMAILLSHANSVVNPIVYAYRNRDFRYTFHKIISRYLLCQADVKSGNGQAGVQPALGVGL [ADORA2B]” was tested, and the “plasma membrane surface immunostaining intensity” value was 1240 ± 140. In the case of “MDLELDEYYNKTLATENNTAATRNSDFPVWDDYKSSVDDLQYFLIGLYTFVSLLGFMGNLLILMALMKKRNQKTTVNFLIGNLAFSDILVVLFCSPFTLTSVLLDQWMFGKVMCHIMPFLQCVSVLVSTLILISIAIVRYHMIKHPISNNLTANHGYFLIATVWTLGFAICSPLPVFHSLVELQETFGSALLSSRYLCVESWPSDSYRIAFTISLLLVQYILPLVCLTVSHTSVCRSISCGLSNKENRLEENEMINLTLHPSKKSGPQVKLSGSHKWSYSFIKKHRRRYSKKTACVLPAPERPSQENHSRILPENFGSVRSQLSSSSKFIPGVPTCFEIKPEENSDVHELRVKRSVTRIKKRSRSVFYRLTILILVFAVSWMPLHLFHVVTDFNDNLISNRHFKLVYCICHLLGMMSCCLNPILYGFLNNGIKADLVSLIHCLHM [NPY5R]”, the “plasma membrane surface immunostaining intensity” value is reported as 269 ± 26.

Same assay, conditions: GPCR class: A (Olfactory)
In the case of “MLNTTSVTEFLLLGVTDIQELQPFLFVVFLTIYFISVTGNGAVLMIVISDPRLHSLMYFFLGNLSYLDICYSTVTLPKMLQNFLSTHKAISFLGCISQLHFFHSLGSTESMLFAVMAFDLSVAICKPLRYTVIMNPQLCTQMAITIWVIGFFHALLHSVMTSRLNFCGSNRIHHFLCDIKPLLKLACGNTELNQWLLSTVTGTIAMGPFFLTLLSYFYIITYLFFKTRSCSMLCKALSTCASHFMVVILFYAPVLFTYIHPALESFMDQDRIVAIMYTVVTPVLNPLIYTLRNKEVKGALGRVIRRL [OR12D2]”, the “plasma membrane surface immunostaining intensity” value is reported as 126 ± 22. “MAGNNFTEVTVFILSGFANHPELQVSLFLMFLFIYLFTVLGNLGLITLIRMDSQLHTPMYFFLSNLAFIDIFYSSTVTPKALVNFQSNRRSISFVGCFVQMYFFVGLVCCECFLLGSMAYNRYIAICNPLLYSVVMSQKVSNWLGVMPYVIGFTSSLISVWVISSLAFCDSSINHFFCDTTALLALSCVDTFGTEMVSFVLAGFTLLSSLLIITVTYIIIISAILRIQSAAGRQKAFSTCASHLMAVTIFYGSLIFTYLQPDNTSSLTQAQVASVFYTIVIPMLNPLIYSLRNKDVKNALLRVIHRKLFP [OR8I2]” was tested, and the “plasma membrane surface immunostaining intensity” value was 189 ± 85. For “MAERNYTVVTEFFLTAFTEHLQWRVPLFLIFLSFYLATMLGNTGMILLIRGDRRLHTPMYFFLSHLSLVDICYSSAIIPQMLAVLWEHGTTISQARCAAQFFLFTFFASIDCYLLAIMAYDRYTAVCQPLLYVTIITEKARWGLVTGAYVAGFFSAFVRTVTAFTLSFCGNNEINFIFCDLPPLLKLSCGDSYTQEVVIIVFALFVMPACILVILVSYLFIIVAILQIHSAGGRAKTFSTCASHLTAVALFFGTLIFMYLRDNTGQSSEGDRVVSVLYTVVTPMLNPLIYSLRNKEVKEATRKALSKSKPARRP [OR9Q2]”, the “plasma membrane surface immunostaining intensity” value was 188 ± 71. In the case of “MAWENQTFNSDFLLLGIFNHSPTHTFLFFLVLAIFSVAFMGNSIMVLLIYLDTQLHTPMYFLLSQLSLMDLMLICTTVPKMAFNYLSGSKSISMAGCATQIFFYISLLGSECFLLAVMSYDRYTAICHPLRYTNLMRPKICGLMTAFSWILGSTDGIIDAVATFSFSYCGSREIAHFCCDFPSLLILSCNDTSIFEEVIFICCIVMLVFPVAIIITSYARVILAVIHMGSGEGRRKAFTTCSSHLMVVGMYYGAGLFMCIQPTSHHSPMQDKMVSVFYTIVTPMLNPLIYSLRNKEVTRALMKILGKGKSGD [OR2M7]”, the “plasma membrane surface immunostaining intensity” value is reported as 157 ± 44. With “MEPEKQTEISEFFLQGLSEKPEHQTLLFTMFLSTYLVTIIGNALIILAIITDSHLHTPMYFFLFNLSLVDTLLSSTTVPKMLANIQAQSRAIPFVGCLTQMYAFHLFGTMDSFLLAVMAIDRFVAIVHPQRYLVLMCSPVCGLLLGASWMITNLQSLIHTCLMAQLTFCAGSEISHFFCDLMPLLKLSGSDTHTNELVIFAFGIVVGTSPFSCILLSYIRIFWTVFKIPSTRGKWKAFSTCGLHLTVVSLSYGTIFAVYLQPTSPSSSQKDKAAALMCGVFIPMLNPFIYSIRNKDMKAALGKLIGKVAVPCPRPEQLLDVYHVPGSLLAARDTEMHPIPYPGGVQSLAGNRDME [OR1I1]” the “plasma membrane surface immunostaining intensity” value was 161 ± 47.

Same assay, conditions: GPCR class: C
In the case of “MEPEINCSELCDSFPGQELDRRPLHDLCKTTITSSHHSSKTISSLSPVLLGIVWTFLSCGLLLILFFLAFTIHCRKNRIVKMSSPNLNIVTLLGSCLTYSSAYLFGIQDVLVGSSMETLIQTRLSMLCIGTSLVFGPILGKSWRLYKVFTQRVPDKRVIIKDLQLLGLVAALLMADVILLMTWVLTDPIQCLQILSVSMTVTGKDVSCTSTSTHFCASRYSDVWIALIWGCKGLLLLYGAYLAGLTGHVSSPPVNQSLTIMVGVNLLVLAAGLLFVVTRYLHSWPNLVFGLTSGGIFVCTTTINCFIFIPQLKQWKAFEEENQTIRRMAKYFSTPNKSFHTQYGEEENCHPRGEKSSMERLLTEKNAVIESLQEQVNNAKEKIVRLMSAECTYDLPEGAAPPASSPNKDVQAVASVHTLAAAQGPSGHLSDFQNDPGMAARDSQCTSGPSSYAQSLEGPGKDSSFSPGKEEKISDSKDFSDHLDSGCSQKPWTEQSLGPERGDQVPMNPSQSLLPERGGSDPQRQRHLENSEEPPERRSRVSSVIREKLQEVLQDLGLGPEASLSTAPSCHQQTWKNSAAFSPQKMPLSKELGFSPYMVRRRRAAQRARSHFPGSAPSSVGHRANRTVPGAHSRLHVQNGDSPSLAPQTTDSRVRRPSSRKPSLPSDPQDRPGTLEGSKQSQTEPEGARGSKAAFLRQPSGSGRAPSPAAPCLSKASPDLPEQWQLWPPVPSGCASLSSQHSYFDTESSSSDEFFCRCHRPYCEICFQSSSDSSDSGTSDTDPEPTGGLASWEKLWARSKPIVNFKDDLKPTLV [GPR156]”, the “plasma membrane surface immunostaining intensity” value is reported as 352 ± 30. With “MKMLTRLQVLTLALFSKGFLLSLGDHNFLRREIKIEGDLVLGGLFPINEKGTGTEECGRINEDRGIQRLEAMLFAIDEINKDDYLLPGVKLGVHILDTCSRDTYALEQSLEFVRASLTKVDEAEYMCPDGSYAIQENIPLLIAGVIGGSYSSVSIQVANLLRLFQIPQISYASTSAKLSDKSRYDYFARTVPPDFYQAKAMAEILRFFNWTYVSTVASEGDYGETGIEAFEQEARLRNICIATAEKVGRSNIRKSYDSVIRELLQKPNARVVVLFMRSDDSRELIAAASRANASFTWVASDGWGAQESIIKGSEHVAYGAITLELASQPVRQFDRYFQSLNPYNNHRNPWFRDFWEQKFQCSLQNKRNHRRVCDKHLAIDSSNYEQESKIMFVVNAVYAMAHALHKMQRTLCPNTTKLCDAMKILDGKKLYKDYLLKINFTAPFNPNKDADSIVKFDTFGDGMGRYNVFNFQNVGGKYSYLKVGHWAETLSLDVNSIHWSRNSVPTSQCSDPCAPNEMKNMQPGDVCCWICIPCEPYEYLADEFTCMDCGSGQWPTADLTGCYDLPEDYIRWEDAWAIGPVTIACLGFMCTCMVVTVFIKHNNTPLVKASGRELCYILLFGVGLSYCMTFFFIAKPSPVICALRRLGLGSSFAICYSALLTKTNCIARIFDGVKNGAQRPKFISPSSQVFICLGLILVQIVMVSVWLILEAPGTRRYTLAEKRETVILKCNVKDSSMLISLTYDVILVILCTVYAFKTRKCPENFNEAKFIGFTMYTTCIIWLAFLPIFYVTSSDYRVQTTTMCISVSLSGFVVLGCLFAPKVHIILFQPQKNVVTHRLHLNRFSVSGTGTTYSQSSASTYVPTVCNGREVLDSTTSSL [GRM3]” the “plasma membrane surface immunostaining intensity” value was 6390 ± 16.
